Results as given in patent US20150087577A1 (POLYPHOR, published 2015).
Blank lines part the entries; values can stand above or below the binder they belong to. Bridges are numbered along the chain shown (N, C = ends). [ ]: non-standard residue; d: D form. 2Nal = N[C@@H](Cc1ccc2ccccc2c1)C(=O)O; Cit = NC(=O)NCCC[C@H](N)C(=O)O

Target: human CXCR4 (human, UniProt P61073 1-352)
Experiment: cell-based or functional assay

Chain of human CXCR4 (P61073 whole entry): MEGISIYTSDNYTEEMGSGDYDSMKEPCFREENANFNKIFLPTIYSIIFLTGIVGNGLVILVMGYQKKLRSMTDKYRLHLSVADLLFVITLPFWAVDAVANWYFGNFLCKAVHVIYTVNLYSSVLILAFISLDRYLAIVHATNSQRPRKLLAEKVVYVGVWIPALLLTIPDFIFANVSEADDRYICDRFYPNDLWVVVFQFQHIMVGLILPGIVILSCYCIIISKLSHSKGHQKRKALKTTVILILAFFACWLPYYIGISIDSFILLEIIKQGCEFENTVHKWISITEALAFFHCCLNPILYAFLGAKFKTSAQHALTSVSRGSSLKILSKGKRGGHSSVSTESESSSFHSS

B1: Example 57 (peptide)
peptide: cyclo(YR[Cit]CRG[dP]RR[2Nal]CYRK[dP]P)
modifications: disulfide 4-11
SMILES: N=C(N)NCCC[C@@H]1NC(=O)[C@@H]2CSSC[C@H](NC(=O)[C@H](Cc3ccc4ccccc4c3)NC(=O)[C@H](CCCNC(=N)N)NC(=O)[C@H](CCCNC(=N)N)NC(=O)[C@H]3CCCN3C(=O)CNC1=O)C(=O)N[C@@H](Cc1ccc(O)cc1)C(=O)N[C@@H](CCCNC(=N)N)C(=O)N[C@@H](CCCCN)C(=O)N1CCC[C@@H]1C(=O)N1CCC[C@H]1C(=O)N[C@@H](Cc1ccc(O)cc1)C(=O)N[C@@H](CCCNC(=N)N)C(=O)N[C@@H](CCCNC(N)=O)C(=O)N2
IC50 (nM) Ca2+ assay (method 2): 4.2 nM

B2: Example 38 (peptide)
peptide: cyclo(YR[Cit]FRG[dP]RR[2Nal]FY[Cit]K[dP]P)
SMILES: N=C(N)NCCC[C@@H]1NC(=O)[C@H](Cc2ccccc2)NC(=O)[C@H](CCCNC(N)=O)NC(=O)[C@H](CCCNC(=N)N)NC(=O)[C@H](Cc2ccc(O)cc2)NC(=O)[C@@H]2CCCN2C(=O)[C@H]2CCCN2C(=O)[C@H](CCCCN)NC(=O)[C@H](CCCNC(N)=O)NC(=O)[C@H](Cc2ccc(O)cc2)NC(=O)[C@H](Cc2ccccc2)NC(=O)[C@H](Cc2ccc3ccccc3c2)NC(=O)[C@H](CCCNC(=N)N)NC(=O)[C@H](CCCNC(=N)N)NC(=O)[C@H]2CCCN2C(=O)CNC1=O
IC50 (nM) Ca2+ assay (method 1): 720 nM

B5: Example 56 (peptide)
peptide: cyclo(YR[Cit]CRG[dP]TR[2Nal]CYQK[dP]P)
modifications: disulfide 4-11
SMILES: C[C@@H](O)[C@@H]1NC(=O)[C@H]2CCCN2C(=O)CNC(=O)[C@H](CCCNC(=N)N)NC(=O)[C@@H]2CSSC[C@H](NC(=O)[C@H](Cc3ccc4ccccc4c3)NC(=O)[C@H](CCCNC(=N)N)NC1=O)C(=O)N[C@@H](Cc1ccc(O)cc1)C(=O)N[C@@H](CCC(N)=O)C(=O)N[C@@H](CCCCN)C(=O)N1CCC[C@@H]1C(=O)N1CCC[C@H]1C(=O)N[C@@H](Cc1ccc(O)cc1)C(=O)N[C@@H](CCCNC(=N)N)C(=O)N[C@@H](CCCNC(N)=O)C(=O)N2
IC50 (nM) Ca2+ assay (method 2): 0.74 nM

B6: Example 54 (peptide)
peptide: cyclo(YR[Cit]CRG[dP]YR[2Nal]CYQK[dP]P)
modifications: disulfide 4-11
SMILES: N=C(N)NCCC[C@@H]1NC(=O)[C@@H]2CSSC[C@H](NC(=O)[C@H](Cc3ccc4ccccc4c3)NC(=O)[C@H](CCCNC(=N)N)NC(=O)[C@H](Cc3ccc(O)cc3)NC(=O)[C@H]3CCCN3C(=O)CNC1=O)C(=O)N[C@@H](Cc1ccc(O)cc1)C(=O)N[C@@H](CCC(N)=O)C(=O)N[C@@H](CCCCN)C(=O)N1CCC[C@@H]1C(=O)N1CCC[C@H]1C(=O)N[C@@H](Cc1ccc(O)cc1)C(=O)N[C@@H](CCCNC(=N)N)C(=O)N[C@@H](CCCNC(N)=O)C(=O)N2
IC50 (nM) Ca2+ assay (method 2): 6.9 nM

B8: Example 2 (peptide)
peptide: cyclo(YR[Cit]VR[dR]R[2Nal]VY[Cit]K[dP]P)
SMILES: CC(C)[C@@H]1NC(=O)[C@H](Cc2ccc3ccccc3c2)NC(=O)[C@H](CCCNC(=N)N)NC(=O)[C@@H](CCCNC(=N)N)NC(=O)[C@H](CCCNC(=N)N)NC(=O)[C@H](C(C)C)NC(=O)[C@H](CCCNC(N)=O)NC(=O)[C@H](CCCNC(=N)N)NC(=O)[C@H](Cc2ccc(O)cc2)NC(=O)[C@@H]2CCCN2C(=O)[C@H]2CCCN2C(=O)[C@H](CCCCN)NC(=O)[C@H](CCCNC(N)=O)NC(=O)[C@H](Cc2ccc(O)cc2)NC1=O
IC50 (nM) Ca2+ assay (method 1): 2830 nM

B12: Example 53 (peptide)
peptide: cyclo(YR[Cit]CRVGRR[2Nal]CY[Cit]K[dP]P)
modifications: disulfide 4-11
SMILES: CC(C)[C@@H]1NC(=O)[C@H](CCCNC(=N)N)NC(=O)[C@@H]2CSSC[C@H](NC(=O)[C@H](Cc3ccc4ccccc4c3)NC(=O)[C@H](CCCNC(=N)N)NC(=O)[C@H](CCCNC(=N)N)NC(=O)CNC1=O)C(=O)N[C@@H](Cc1ccc(O)cc1)C(=O)N[C@@H](CCCNC(N)=O)C(=O)N[C@@H](CCCCN)C(=O)N1CCC[C@@H]1C(=O)N1CCC[C@H]1C(=O)N[C@@H](Cc1ccc(O)cc1)C(=O)N[C@@H](CCCNC(=N)N)C(=O)N[C@@H](CCCNC(N)=O)C(=O)N2
IC50 (nM) Ca2+ assay (method 1): 57.8 nM

B13: Example 55 (peptide)
peptide: cyclo(YR[Cit]CRG[dP]WR[2Nal]CYQK[dP]P)
modifications: disulfide 4-11
SMILES: N=C(N)NCCC[C@@H]1NC(=O)[C@@H]2CSSC[C@H](NC(=O)[C@H](Cc3ccc4ccccc4c3)NC(=O)[C@H](CCCNC(=N)N)NC(=O)[C@H](Cc3c[nH]c4ccccc34)NC(=O)[C@H]3CCCN3C(=O)CNC1=O)C(=O)N[C@@H](Cc1ccc(O)cc1)C(=O)N[C@@H](CCC(N)=O)C(=O)N[C@@H](CCCCN)C(=O)N1CCC[C@@H]1C(=O)N1CCC[C@H]1C(=O)N[C@@H](Cc1ccc(O)cc1)C(=O)N[C@@H](CCCNC(=N)N)C(=O)N[C@@H](CCCNC(N)=O)C(=O)N2
IC50 (nM) Ca2+ assay (method 2): 6.3 nM

Further lines, results first:

IC50 (nM) Ca2+ assay (method 2): 10.5 nM
B3: Example 58 (peptide)
peptide: cyclo(YR[Cit]CRG[dP]RR[2Nal]CYHK[dP]P)
modifications: disulfide 4-11
SMILES: N=C(N)NCCC[C@@H]1NC(=O)[C@@H]2CSSC[C@H](NC(=O)[C@H](Cc3ccc4ccccc4c3)NC(=O)[C@H](CCCNC(=N)N)NC(=O)[C@H](CCCNC(=N)N)NC(=O)[C@H]3CCCN3C(=O)CNC1=O)C(=O)N[C@@H](Cc1ccc(O)cc1)C(=O)N[C@@H](Cc1c[nH]cn1)C(=O)N[C@@H](CCCCN)C(=O)N1CCC[C@@H]1C(=O)N1CCC[C@H]1C(=O)N[C@@H](Cc1ccc(O)cc1)C(=O)N[C@@H](CCCNC(=N)N)C(=O)N[C@@H](CCCNC(N)=O)C(=O)N2

IC50 (nM) Ca2+ assay (method 2): 7.8 nM
B4: Example 59 (peptide)
peptide: cyclo(YR[Cit]CRG[dP]RR[2Nal]CYYK[dP]P)
modifications: disulfide 4-11
SMILES: N=C(N)NCCC[C@@H]1NC(=O)[C@@H]2CSSC[C@H](NC(=O)[C@H](Cc3ccc4ccccc4c3)NC(=O)[C@H](CCCNC(=N)N)NC(=O)[C@H](CCCNC(=N)N)NC(=O)[C@H]3CCCN3C(=O)CNC1=O)C(=O)N[C@@H](Cc1ccc(O)cc1)C(=O)N[C@@H](Cc1ccc(O)cc1)C(=O)N[C@@H](CCCCN)C(=O)N1CCC[C@@H]1C(=O)N1CCC[C@H]1C(=O)N[C@@H](Cc1ccc(O)cc1)C(=O)N[C@@H](CCCNC(=N)N)C(=O)N[C@@H](CCCNC(N)=O)C(=O)N2

IC50 (nM) Ca2+ assay (method 2): 0.18 nM
B7: Example 60 (peptide)
peptide: cyclo(YR[Cit]CRG[dP]RR[2Nal]CYQQ[dP]P)
modifications: disulfide 4-11
SMILES: N=C(N)NCCC[C@@H]1NC(=O)[C@@H]2CSSC[C@H](NC(=O)[C@H](Cc3ccc4ccccc4c3)NC(=O)[C@H](CCCNC(=N)N)NC(=O)[C@H](CCCNC(=N)N)NC(=O)[C@H]3CCCN3C(=O)CNC1=O)C(=O)N[C@@H](Cc1ccc(O)cc1)C(=O)N[C@@H](CCC(N)=O)C(=O)N[C@@H](CCC(N)=O)C(=O)N1CCC[C@@H]1C(=O)N1CCC[C@H]1C(=O)N[C@@H](Cc1ccc(O)cc1)C(=O)N[C@@H](CCCNC(=N)N)C(=O)N[C@@H](CCCNC(N)=O)C(=O)N2

IC50 (nM) Ca2+ assay (method 2): 4.1 nM
B9: Example 61 (peptide)
peptide: cyclo(YR[Cit]CRG[dP]RR[2Nal]CYQE[dP]P)
modifications: disulfide 4-11
SMILES: N=C(N)NCCC[C@@H]1NC(=O)[C@@H]2CSSC[C@H](NC(=O)[C@H](Cc3ccc4ccccc4c3)NC(=O)[C@H](CCCNC(=N)N)NC(=O)[C@H](CCCNC(=N)N)NC(=O)[C@H]3CCCN3C(=O)CNC1=O)C(=O)N[C@@H](Cc1ccc(O)cc1)C(=O)N[C@@H](CCC(N)=O)C(=O)N[C@@H](CCC(=O)O)C(=O)N1CCC[C@@H]1C(=O)N1CCC[C@H]1C(=O)N[C@@H](Cc1ccc(O)cc1)C(=O)N[C@@H](CCCNC(=N)N)C(=O)N[C@@H](CCCNC(N)=O)C(=O)N2

IC50 (nM) Ca2+ assay (method 2): 3.3 nM
B10: Example 64 (peptide)
peptide: cyclo(HR[Cit]CRG[dP]RR[2Nal]CYQK[dP]P)
modifications: disulfide 4-11
SMILES: N=C(N)NCCC[C@@H]1NC(=O)[C@@H]2CSSC[C@H](NC(=O)[C@H](Cc3ccc4ccccc4c3)NC(=O)[C@H](CCCNC(=N)N)NC(=O)[C@H](CCCNC(=N)N)NC(=O)[C@H]3CCCN3C(=O)CNC1=O)C(=O)N[C@@H](Cc1ccc(O)cc1)C(=O)N[C@@H](CCC(N)=O)C(=O)N[C@@H](CCCCN)C(=O)N1CCC[C@@H]1C(=O)N1CCC[C@H]1C(=O)N[C@@H](Cc1c[nH]cn1)C(=O)N[C@@H](CCCNC(=N)N)C(=O)N[C@@H](CCCNC(N)=O)C(=O)N2

IC50 (nM) Ca2+ assay (method 2): 2 nM
B11: Example 63 (peptide)
peptide: cyclo(RR[Cit]CRG[dP]RR[2Nal]CYQK[dP]P)
modifications: disulfide 4-11
SMILES: N=C(N)NCCC[C@@H]1NC(=O)[C@@H]2CSSC[C@H](NC(=O)[C@H](Cc3ccc4ccccc4c3)NC(=O)[C@H](CCCNC(=N)N)NC(=O)[C@H](CCCNC(=N)N)NC(=O)[C@H]3CCCN3C(=O)CNC1=O)C(=O)N[C@@H](Cc1ccc(O)cc1)C(=O)N[C@@H](CCC(N)=O)C(=O)N[C@@H](CCCCN)C(=O)N1CCC[C@@H]1C(=O)N1CCC[C@H]1C(=O)N[C@@H](CCCNC(=N)N)C(=O)N[C@@H](CCCNC(=N)N)C(=O)N[C@@H](CCCNC(N)=O)C(=O)N2

IC50 (nM) Ca2+ assay (method 2): 1.8 nM
B14: Example 62 (peptide)
peptide: cyclo(QR[Cit]CRG[dP]RR[2Nal]CYQK[dP]P)
modifications: disulfide 4-11
SMILES: N=C(N)NCCC[C@@H]1NC(=O)[C@@H]2CSSC[C@H](NC(=O)[C@H](Cc3ccc4ccccc4c3)NC(=O)[C@H](CCCNC(=N)N)NC(=O)[C@H](CCCNC(=N)N)NC(=O)[C@H]3CCCN3C(=O)CNC1=O)C(=O)N[C@@H](Cc1ccc(O)cc1)C(=O)N[C@@H](CCC(N)=O)C(=O)N[C@@H](CCCCN)C(=O)N1CCC[C@@H]1C(=O)N1CCC[C@H]1C(=O)N[C@@H](CCC(N)=O)C(=O)N[C@@H](CCCNC(=N)N)C(=O)N[C@@H](CCCNC(N)=O)C(=O)N2
